Measured values: the nanobody polyreactivity screen of Harvey et al. (2022)

Assay: yeast display, Sf9 membrane polyspecificity reagent, FACS + sequencing; frameworks hold sequencing errors
How it was run: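 Nanobodies came from a synthetic yeast display library in Saccharomyces cerevisiae BJ5465, induced with galactose for 36–48 hours and stained for 1 hour at 4 °C with 10% biotinylated, detergent-solubilized Sf9 membrane reagent. Cells were enriched on streptavidin microbeads and then FACS-sorted, with low and high (top ~1%) gates set on anti-HA fluorescence for expression and streptavidin fluorescence for reagent binding. Each polyreactivity label reflects the gate a clone came from. Genes were amplified by colony PCR, sequenced by MiSeq 2 × 250 and filtered by CDR length.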

| Sequence | polyreactivity (PSR sort gate) |
| --- | --- |
| QVQLVESGGGLDQAGGSLRLSCAASGRTFGWYAMGWYRQAPGTERELVAVISSSGGRTYYADSVKGRFTISRDNAKNTVYLQLNSLKPEDTAVYYCATPNGSKRYSYYYWGQGTQVTVSS | high polyreactivity |
| QVQRVESGGGLVLAGGSLRLSSAASGITFVRYAMGGYRQAPVKERELVAVISRGGITNYADSVMGRFTISRDNAKNTVYLQMNSLKPEDTAVYYCAVRARSYVRTYDYWGQGTQVTVSS | high polyreactivity |
| QVQLVESGGGLVQAGGSLRLSCAASGRIFYLNAMGWYRQAPGKERELVAAISGSTGSTYYADSVKGRFTISRDNAKNTVYLQMNSLKPEDTAVYYCNAGGVYDEFNYWGQGTQVTVSS | low polyreactivity |
| QVQLLESGGGIVQAGGSLRLSCAASGSTYVIYDMVWYRQAPGKERELVAVITIIGGSTYYADSVKGRFTISRDNAKNTVYLQMISLKPEDTAVYYCNANVIQDYPNYDYWGQGTLVTVSS | low polyreactivity |
| QVQLVESGGGLVQAGGSLRLSCAASGFIFPLYAMGWYRKAPGKERELVAAITWRGDTTSYADSVKGRFTISRDNAKNTVYLQMNSLKPEDTAVYYCAAEFYDWWYYGGGEYWGQGTQVTVSS | high polyreactivity |
| HVQLQESGGGLVQAGGSLRLSCAASGSIFQATYMGWYRQAPGKEREFVASITYGSITNYADSVKGRFTIGRDNAKETLYLQMNSLKPEDTAVYYCAVDRHYIPAFHYWGQGTQVTVSS | low polyreactivity |
| QVQLEESGGGLVQAGGSLRLSCAASGSILVIYTMGWYRQAPGKERELVAGINYSGGRTYYADSVKGRFTISRDNAKNTVYLQMNSLKPEDTAVYYCSADYYFLDWYDYWGQGTQVTVSS | low polyreactivity |
| QVQLVESGGGLVQAGGSLRLSCAASGSTFKPNAMGWYRQAPGKERELVAGISGRGGSTNYADSVKGRFTISRDNAKNTVYLQMNRLKPEDTAVYYCAKDAYPLWLTRYNYWGQGTQVTVSS | low polyreactivity |
| QVQLVESGGGLVQAGGSLRLSCAASGSIFLYNAMGWYRQAPGKERELVAAITWSTDRTYYADSVKGRFTISRDNAKNTVYVQMNSLKPEDTAVYYCNRLVNHIYVPRRDYWGQGTQVTVSS | low polyreactivity |
| QVQLVESGGGLVQAGGSLRLSCAASGSIFARFAMGWYRQAPGKERELVAAISGRGGSTYYADSVKGRFTISRDNAKNTVYLQMNSLKPEDTAVYYCNAVGHTSIRRALDILDYWGQVTQVTVSS | high polyreactivity |
| QVQLVESGGGLVQAGGSLRLSCAASGSIFNSYAMGWYRQAPGKERELVAAISGSGTRTYYADSVKGRFTISRDNAKNTVYLQMNSLKPEDTAVYYCAGYGYWGQGTQVNVSS | high polyreactivity |
| QVQLVDSGGGLVQAGGSLRLSCAASGFTFVYYVMGWYRQAPGKERQLVAAINAGGGSTYYADSVKGRFTISRDIAKYTVYLQMNSLKPEDTAVYYCNARVRVRLGRNWSSYYYWGQGTQVTVSS | high polyreactivity |
| QVQLVESGGGLVQAGGSLRLSCAASGSTFETNAMGWYRQAPGKERELVAAIRWSTGNTYYADSVKGRFTISRDNAKNTVYLQMNSLKPEDTAVYDCAAYKGKHDKEGYWGQGTQVTVSS | low polyreactivity |
| QVQLVESGGGLVQAGGSLRLSCAASSIFPSNAMGLYRPAPGKERELVAAISSGGSTNYADSVKGRFTISRDNAKNTVYLQMNSLKPEDTAVYYCAAVRYYRRRTGSYYHYDYWGQGTQVTVSS | low polyreactivity |
| QVQLVESGGGLVQAGGSLRLSCAASGFIFKGYAKGWYRQAPGKERELVAAINTSGGSTYYAVSVKGRFTISRDNAKNTVYVQMNSLKPEDTAVYYCNVRNRSRPYLPFWPDDNWGQGTQVTVSS | high polyreactivity |
| QVQLVESGGGLVQAGGSLRLSCAASGRTFGGNAMGWYRQAPGKERELVAAITGRGGSTFYADSVKGRFTISRDNAKNTVYLQMNSLKPEDTAVYYCAKQFKRGYGYDYWGQGTQVTVSS | low polyreactivity |

| Sequence | polyreactivity (PSR sort gate) |
| --- | --- |
| QVQLVESGGGLVQAGGSLRLSCAASGLTFIYYAMGWYRQARGKERELVAAISRSGGSTYYADSVKGRFTISRDNAKNTVYLQMNSLKPEDTAVYYCAADGTKYSGRVTGDYWGQGTQVTVSS | high polyreactivity |
| QVQLVESGGGLVQAGGSLRLICAASGSTFLTNVMGWYRQAPGKERELVAAISRGGGRTYYADSVKGRFTISRDNAKNTVYLQMNSLKPEDTAVYYCNAVDASHAGPVGGAFRYDYWGQGTQVTVSS | high polyreactivity |
| QVLLVESGGGLVQAGGSLRLSCAASGYTFHVNAMGWYRQAPGKERELVAAINTSGDSTYYADSLKGRFTISRDNAKNTVYLQMNSLKPEDTAVYYCNAKGSVTRIGMEYDYWGQGTQVTVSW | low polyreactivity |
| QVQLVESGGGLVQAGGSLRLSCASSGIIFLTYAMGWYRQAPGKERELVAAINSTGSTNYADSVKGRFTISRDNAKYSVYLQMNSLKPDDTAVYYCAAEGLPYVRVFDFVSRYDYWGQGTQVTVSS | low polyreactivity |
| QVQLVESGVGKVQAGGSLRLSCAASGSTIGSNAMGWYRQAPGKESELVATINWRGGSTYADSVKGRFTLSRDNAKNTVYLQINSLKPEDTAVYYCKKVRGAFYSHLFDYWGQGTEVTVSS | high polyreactivity |
| QVQLVETGGGLVQAGGSLRLSCAASGITFFAYAMGWYRQAPGKERELVAAISTGGSTNYADSVKGRFTISRDNAKNTVYLQMNSLKPEDTAVYYCGSDRSDLAEEGYAGYDYWGQVTQVTVSS | low polyreactivity |
| QVQLVESGGGLVQAGGSLRLRCAASGSIMGRYAMGWYRQAPGKERELVAAITSSGTRTYYPDSVKGRFTISRDNANNTVYLQMNSLKPEDTAVYYCAAYLAITRSYYIVPYDYWGQGTQVTVSS | high polyreactivity |
| QVQLVESGGGLVQAGGSLRLSCAASGSTFNQYAMGWYRQAPGKEREFVATITWSGGRTYYADSVKGRFTISRDNAKNTVYLQMISLKPEDTAVYYCAAQPDYRPSYGYGYWGQGTQVTVSS | low polyreactivity |
| QVQLVESGGGLVQAGGSLRLSCAASGSTFVYNAMGWYRQAPGKERELVAAISRGGGITYYADSVKGRFTISRDNAKNTVYLQMNSLKPEDTAVYYCQYLSRGLNTYRSSQGDDDYWGQGTQVTVSS | high polyreactivity |
| QVQLQESGGGLVQAGGSLRMSCAASGSISSRDAMGLYRQAPGKEREFVATIASGTTTYYADSVKGSFTISRDNAENTVYLQTNSLKPEDTAVYYCAAPTIQIYPFYYWGQGTQVTVSS | high polyreactivity |
| QVQLVESGGGLVQAGGSLRLSCAASGSTFSVYAMGWYRQAPGTERELVAAITWSGGSTYYADSVKGRFTISRDNAKNTDYLQMNSLKPEDTAVYDCNAEGYYVWGITTYWLHQYGYWGQGTQVTVSS | low polyreactivity |
| QVQLVESGGGLVQAGGSLRLSCAASGSTFAPNAMGWYRQAPGKERELVAAIRTNTGSTYYADSVKGRFTISRDNAKNTVYLQMNSLKPEDTAVYYCAAVFSGFYYAYDYWGQGTQVTVSS | high polyreactivity |
| QVQLVESGGGLVQAGGSLRLSCAASGRIFVTNAMGGYRQAPGKEREFVAGISFSGDGRTYYADSVKGRFTISRDNAKNTVYLQMNSLKPEDSAVYYCAAPHRSRTHELDYWGQGTQVTVSS | low polyreactivity |
| QVQLVESGGGLVQAGGSLRLSCAASGFTFWEYALGWYRQAPGKERELVAAISRGTSTYYADSVKGRFTIPRDNAKNTVYLQMNSLKPEDTAVYYCAARQDPPLGYDYWGQGTQVTVSS | low polyreactivity |
| QVQLVESGGGLVQAGGSLRLSCAASGITFEPNDMGWYRQAPGKERELVAAISWSGGDTYYADSVKGRFTISRDNAKNTVYLQMNSLKPEDTAVYYCAAESWVAYEYWGQGTQVTVSS | low polyreactivity |
